From US10174359

What was measured:
[1] = biological target: cyclin B1-cdk1 complex (UniProt P14635)
[2] = tested on: separase sensor, wild-type Scc1 (142-467), histone H2B localization-targeting sequence

Sequence of cyclin B1-cdk1 complex (P14635 whole entry, looked up, one chain of several): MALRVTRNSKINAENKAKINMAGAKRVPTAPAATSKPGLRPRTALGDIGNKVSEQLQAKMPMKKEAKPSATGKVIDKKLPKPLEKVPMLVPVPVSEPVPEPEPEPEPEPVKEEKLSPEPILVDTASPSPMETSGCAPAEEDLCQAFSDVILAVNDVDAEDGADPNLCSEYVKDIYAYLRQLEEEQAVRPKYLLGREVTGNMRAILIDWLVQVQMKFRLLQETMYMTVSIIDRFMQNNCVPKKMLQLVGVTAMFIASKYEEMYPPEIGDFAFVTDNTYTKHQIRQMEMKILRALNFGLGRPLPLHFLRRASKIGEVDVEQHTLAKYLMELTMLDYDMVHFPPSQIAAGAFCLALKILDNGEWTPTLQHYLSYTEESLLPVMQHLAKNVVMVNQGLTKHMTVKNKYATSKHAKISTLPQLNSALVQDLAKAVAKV

Substance | cdk1 activity (histone H1 kinase assay) [1] | kinase activity (histone H1 as a substrate) [1] | cleavage of the sensor (immunoblot with anti-GFP antibody, FIG. 2D) [2]
myc-tagged mouse separase, wild-type (WT) | cdk1 activity was markedly inhibited in the separase-bound fraction | in the separase-bound fraction, kinase activity is inhibited (separase-bound cyclin B1-cdk1) | –
separase | – | – | The separase sensor localized in chromosome in the cells in anaphase is cleaved
